Experimental data from patent US20020034726A1, “Eosinophil chemotactic factor” (priority 1998, published 2002).
Entries after “also recorded” stand apart in the source; their conditions may differ.

What was measured:
Format in all cases: cell-based
[1] = tested on: human eosinophils; assay: eosinophil chemotaxis (ECA) test, bilayered 48-well chamber
Experimental: (§1) The eosinophil chemotaxis was measured by following the method described in the reference (Lymphokine Cytokine Res. 10, 481-486, 1991; Lymphokine Cytokine Res. 11, 331-338, 1992). Specifically, eosinophils of CD16- were purified from the peripheral blood of normal volunteers by discontinuous density-gradient method using Percoll (Pharmacia, Picataway, N.J.), and the following anti-CD16 immunoglobulin (DAKO. A. S, Glostrup, Denmark) magnetic antibody treatment. Purity of the obtained eosinophils was 97% or higher, and living cells were 95%. Chemotaxis was measured using a bilayered 48-well plate (NeuroProbe, Cabin John, Md.) mediated through a polyvinylpyrrolidone-free membrane (a standard pore size of 5 micron). Chemotactic factors in various concentration, and 0.5×10^6 to 1×10^6 cells/ml human eosinophils were placed on the lower and upper layers, respectively, and incubated under 5% carbon dioxide at 37° C. for 1 to 2 hours. Then the membrane separating two plates was removed, and eosinophils were stained by placing them in DiffQuick stain (Baxter Health Care, McGaw Park, Ill.) to count the eosinophils which were passing through the membrane under a microscope. All assays were conducted three times.
As a positive control, human C5a (Sigma, Saint Louis, Mo.), IL-5 (Genzyme, Cambridge, Mass.), RANTES (Genzyme), and eotaxin-1 (Seikagaku-Kogyo, Tokyo) were used. […]

[2] = tested on: lymphocytes; assay: lymphocyte chemotaxis test; settings: membrane pore size 3 μm; PBS negative control, lymphotactin positive control; FIG. 7
Experimental: as §1
(§2) The similar experiments were conducted in regard to lymphocytes (FIG. 7) and monocytes (FIG. 8). Pore sizes of the membranes are 3 and 8 μm, respectively. […]

[3] = tested on: neutrophils; assay: neutrophil chemotaxis test; settings: PBS negative control, IL-8 positive control; FIG. 6
[4] = tested on: monocytes; assay: monocyte chemotaxis test; settings: membrane pore size 8 μm, PBS negative control, MCP-1 positive control, FIG. 8
Experimental: as §1, §2

B1: ecalectin: eosinophil-specific chemotactic factor, 323 amino acid protein of SEQ ID NO: 2, similar to galectin-9; recombinant from Sf9 insect cells (protein, listed as Homo sapiens)
chain: MAFSSSQAPYLSPAVPFSGTIQGGLQDGLQITVNGTVLSSSGTRFAVNFQTGFSGNDIAFHFNPRFEDGGYVVCNTRQNGSWGPEERKTHMPFQKGMPFDLCFLVQSSDFKVMVNGILFVQYFHRVPFHRVDTISVNGSVQLSYISFQPPGVWPANPAPITQTVIHTVQSAPGQMFSTPAIPPMMYPHPAYPMPFITTILGGLYPSKSILLSGTVLPSAQRFHINLCSGNHIAFHLNPRFDENAVVRNTQIDNSWGSEERSLPRKMPFVRGQSFSVWILCEAHCLKVAVDGQHLFEYYHRLRNLPTINRLEVGGDIQLTHVQT
specificity of chemotactic activity ([1]; eosinophils versus neutrophils, lymphocytes, monocytes, FIGS. 5-8): specific to eosinophils | eosinophil chemotactic activity ([1]; recombinant ecalectin purified from Sf9 insect cells, stained eosinophils passing through 5 micron membrane, FIG. 5): strong eosinophil chemotactic activity concentration-dependently; also recorded: concentration-dependent eosinophil chemotactic activity | lymphocyte chemotactic activity [2]: no chemotactic activity; also recorded: low or absent; also recorded: does not cause lymphocyte chemotaxis | neutrophil chemotactic activity [3]: no or little neutrophil chemotactic activity; also recorded: low or absent; also recorded: does not cause neutrophil chemotaxis | monocyte chemotactic activity [4]: no chemotactic activity; also recorded: low or absent | monocyte chemotactic activity ([4]; listed as recombinant ecalectin): does not cause monocyte chemotaxis
